# Measured values taken from article PMC9482650, “Quantitative fragmentomics allow affinity mapping of interactomes” (Nature Communications, 2022).
# T1: LNX2_1, Q8N448
# T1 sequence (Q8N448 228-328, limits assumed, looked up): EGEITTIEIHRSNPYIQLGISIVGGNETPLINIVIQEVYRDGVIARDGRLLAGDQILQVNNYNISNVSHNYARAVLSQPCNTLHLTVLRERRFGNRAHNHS
# B1: ATP2B4, P23634 (peptide)
# chain: SSLQSLETSV
# B2: SARS-CoV2-E, P0DTC4 (peptide)
# chain: NLNSSRVPDLLV
# B3: HPV35-E6, P27228 (peptide)
# chain: SKPTRRETEV
# B4: HPV18-E6, P06463 (peptide)
# chain: RLQRRRETQV
# Target: Q92614
# Assay: holdup assay
# Design: key: below the threshold = too weak to quantify, mostly under pKd 3.1 to 4
# Details: plain residues with an end cap or a label only (N-terminal biotin on a linker: ttds)
row,Binder,pKd
1,B1,below the threshold

# Target: T1, LNX2_1, Q8N448
# Assay: holdup assay
# Design: key: below the threshold = too weak to quantify, mostly under pKd 3.1 to 4
# Details: plain residues with an end cap or a label only (N-terminal biotin on a linker: none)
row,Binder,pKd
1,B2,below the threshold

# Same assay, conditions: plain residues with an end cap or a label only (N-terminal biotin on a linker: ttds)
row,Binder,pKd
1,B3,below the threshold
2,B4,below the threshold

# Target: O75970
# Assay: holdup assay
# Design: key: below the threshold = too weak to quantify, mostly under pKd 3.1 to 4
# Details: plain residues with an end cap or a label only (N-terminal biotin on a linker: ttds)
row,Binder,pKd
1,B1,below the threshold

# Target: Q9NPB6
# Assay: holdup assay
# Design: key: below the threshold = too weak to quantify, mostly under pKd 3.1 to 4
# Details: plain residues with an end cap or a label only (N-terminal biotin on a linker: ttds)
row,Binder,pKd
1,B1,below the threshold

# Target: Q70Z35
# Assay: holdup assay
# Design: key: below the threshold = too weak to quantify, mostly under pKd 3.1 to 4
# Details: plain residues with an end cap or a label only (N-terminal biotin on a linker: ttds)
row,Binder,pKd
1,B1,below the threshold

# Target: O15021
# Assay: holdup assay
# Design: key: below the threshold = too weak to quantify, mostly under pKd 3.1 to 4
# Details: plain residues with an end cap or a label only (N-terminal biotin on a linker: ttds)
row,Binder,pKd
1,B1,below the threshold

# Target: Q6ZWJ1
# Assay: holdup assay
# Design: key: below the threshold = too weak to quantify, mostly under pKd 3.1 to 4
# Details: plain residues with an end cap or a label only (N-terminal biotin on a linker: ttds)
row,Binder,pKd
1,B1,below the threshold

# Target: O43166
# Assay: holdup assay
# Design: key: below the threshold = too weak to quantify, mostly under pKd 3.1 to 4
# Details: plain residues with an end cap or a label only (N-terminal biotin on a linker: ttds)
row,Binder,pKd
1,B1,below the threshold

# Target: Q9P227
# Assay: holdup assay
# Design: key: below the threshold = too weak to quantify, mostly under pKd 3.1 to 4
# Details: plain residues with an end cap or a label only (N-terminal biotin on a linker: ttds)
row,Binder,pKd
1,B1,below the threshold

# Target: Q5TCQ9
# Assay: holdup assay
# Design: key: below the threshold = too weak to quantify, mostly under pKd 3.1 to 4
# Details: plain residues with an end cap or a label only (N-terminal biotin on a linker: ttds)
row,Binder,pKd
1,B1,below the threshold

# Target: Q9NR12
# Assay: holdup assay
# Design: key: below the threshold = too weak to quantify, mostly under pKd 3.1 to 4
# Details: plain residues with an end cap or a label only (N-terminal biotin on a linker: ttds)
row,Binder,pKd
1,B1,below the threshold

# Target: Q96FS4
# Assay: holdup assay
# Design: key: below the threshold = too weak to quantify, mostly under pKd 3.1 to 4
# Details: plain residues with an end cap or a label only (N-terminal biotin on a linker: ttds)
row,Binder,pKd
1,B1,below the threshold

# Target: Q13009
# Assay: holdup assay
# Design: key: below the threshold = too weak to quantify, mostly under pKd 3.1 to 4
# Details: plain residues with an end cap or a label only (N-terminal biotin on a linker: ttds)
row,Binder,pKd
1,B1,below the threshold

# Target: Q9UDY2
# Assay: holdup assay
# Design: key: below the threshold = too weak to quantify, mostly under pKd 3.1 to 4
# Details: plain residues with an end cap or a label only (N-terminal biotin on a linker: ttds)
row,Binder,pKd
1,B1,below the threshold

# Target: Q96JB8
# Assay: holdup assay
# Design: key: below the threshold = too weak to quantify, mostly under pKd 3.1 to 4
# Details: plain residues with an end cap or a label only (N-terminal biotin on a linker: ttds)
row,Binder,pKd
1,B1,below the threshold

# Target: O00560
# Assay: holdup assay
# Design: key: below the threshold = too weak to quantify, mostly under pKd 3.1 to 4
# Details: plain residues with an end cap or a label only (N-terminal biotin on a linker: ttds)
row,Binder,pKd
1,B1,below the threshold

# Target: Q9H190
# Assay: holdup assay
# Design: key: below the threshold = too weak to quantify, mostly under pKd 3.1 to 4
# Details: plain residues with an end cap or a label only (N-terminal biotin on a linker: ttds)
row,Binder,pKd
1,B1,below the threshold

# Target: Q8TEW0
# Assay: holdup assay
# Design: key: below the threshold = too weak to quantify, mostly under pKd 3.1 to 4
# Details: plain residues with an end cap or a label only (N-terminal biotin on a linker: ttds)
row,Binder,pKd
1,B1,below the threshold

# Target: Q9UMS6
# Assay: holdup assay
# Design: key: below the threshold = too weak to quantify, mostly under pKd 3.1 to 4
# Details: plain residues with an end cap or a label only (N-terminal biotin on a linker: ttds)
row,Binder,pKd
1,B1,below the threshold

# Target: Q13368
# Assay: holdup assay
# Design: key: below the threshold = too weak to quantify, mostly under pKd 3.1 to 4
# Details: plain residues with an end cap or a label only (N-terminal biotin on a linker: ttds)
row,Binder,pKd
1,B1,below the threshold

# Target: Q8IUC4
# Assay: holdup assay
# Design: key: below the threshold = too weak to quantify, mostly under pKd 3.1 to 4
# Details: plain residues with an end cap or a label only (N-terminal biotin on a linker: ttds)
row,Binder,pKd
1,B1,below the threshold

# Target: Q12923
# Assay: holdup assay
# Design: key: below the threshold = too weak to quantify, mostly under pKd 3.1 to 4
# Details: plain residues with an end cap or a label only (N-terminal biotin on a linker: ttds)
row,Binder,pKd
1,B1,below the threshold

# Target: O00233
# Assay: holdup assay
# Design: key: below the threshold = too weak to quantify, mostly under pKd 3.1 to 4
# Details: plain residues with an end cap or a label only (N-terminal biotin on a linker: ttds)
row,Binder,pKd
1,B1,below the threshold

# Target: Q9C0E4
# Assay: holdup assay
# Design: key: below the threshold = too weak to quantify, mostly under pKd 3.1 to 4
# Details: plain residues with an end cap or a label only (N-terminal biotin on a linker: ttds)
row,Binder,pKd
1,B1,below the threshold

# Target: Q96JY6
# Assay: holdup assay
# Design: key: below the threshold = too weak to quantify, mostly under pKd 3.1 to 4
# Details: plain residues with an end cap or a label only (N-terminal biotin on a linker: ttds)
row,Binder,pKd
1,B1,below the threshold

# Target: Q9ULJ8
# Assay: holdup assay
# Design: key: below the threshold = too weak to quantify, mostly under pKd 3.1 to 4
# Details: plain residues with an end cap or a label only (N-terminal biotin on a linker: ttds)
row,Binder,pKd
1,B1,below the threshold
